# In PMC7993378, “Inhibition of bacterial and human zinc-metalloproteases by bisphosphonate- and catechol-containing compounds” (Journal of Enzyme Inhibition and Medicinal Chemistry, 2021):
# Test system: COc1ccc2c(CC(=O)N[C@@H](CCCNC(=N)N)C(=O)N3CCC[C@H]3C(=O)N3CCC[C@H]3C(=O)NCC(=O)N[C@@H](Cc3ccccc3)C(=O)N[C@@H](CO)C(=O)N[C@@H](C)C(=O)N[C@@H](Cc3ccccc3)C(=O)N[C@@H](CCCCNc3ccc([N+](=O)[O-])cc3[N+](=O)[O-])C(=O)O)cc(=O)oc2c1
# Test: Km determination of McaRPPGFSAFK(Dnp)-OH with TLN
# Format: biochemical, Bacillus thermoproteolyticus
# Conditions: other: 2% DMSO; pH 7.5
# Protocol: The estimated Km values for ALN and PLN must be regarded as uncertain since the highest substrate concentration used was 10 µM due to quenching. The obtained Km values are very similar to those previously obtained for theses enzymes without DMSO[57] or with a DMSO concentration of 5%[58]. Previously it was reported that TLN is inactivated in most organic cosolvents, but can tolerate up to 10% DMSO to enhance substrate solubility. For TLN, the Km value was also determined with a DMSO concentration of 2%.
# Km values were determined for McaPLGL(Dpa)AR-NH2 with APMA-activated recombinant MMP-9 (rMMP-9(A)), trypsin-activated MMP-9 from THP-1 cells (MMP-9(T)) and MMP-14, and for McaRPPGFSAFK(Dnp)-OH with ALN, PLN and TLN. Substrate concentrations used were 1–10 µM in a total volume of 100 µL of 0.1 M Hepes pH 7.5 containing 10 mM CaCl2, 0.005% Brij-35 and 1.0% DMSO. […] Initial rate experiments were performed as described above for the determination of enzyme activity of MMP-9 during activation and the same excitation and emission wavelengths were used for both substrates.
substance,measurement,value
TLN (Bacillus thermoproteolyticus),Km,7 ± 1 µM
